Measured values reported in the supplement of paper PMC9112550, “Optimization of the antimicrobial peptide Bac7 by deep mutational scanning” (BMC Biology, 2022).

System: Escherichia coli TOP10
Test: shrunken log2 fold change of peptide-encoding DNA abundance (4.5 h post-induction vs induction); higher = less antimicrobial activity (less host growth inhibition)
Conditions: time post-induction: 4.5 h; library: site-saturation at positions 5, 18, 19, 20
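Further: peptides expressed intracellularly from a pBAD plasmid library in pooled LB shake-flask culture, induced with 0.3% L-arabinose, DNA abundance read by NGS, three biological replicates, DESeq2 with apeglm shrinkage.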

Sequence	shrunken log2 fold change
RRIRYRPPRLPRPRPRPLPRPRP	0.00472
RRIRYRPPRLPRPRPRPHVYPRP	-0.748
RRIRGRPPRLPRPRPRPIFYPRP	0.0354
RRIRGRPPRLPRPRPRPATQPRP	0.631
RRIRTRPPRLPRPRPRPGIPPRP	-0.394
RRIRARPPRLPRPRPRPEKHPRP	0.0578
RRIRTRPPRLPRPRPRPMFYPRP	-0.359
RRIRYRPPRLPRPRPRPCFKPRP	-0.328
RRIRPRPPRLPRPRPRPHNFPRP	0.0735
RRIRNRPPRLPRPRPRPVFYPRP	-0.19
RRIRPRPPRLPRPRPRPETRPRP	0.187
RRIRSRPPRLPRPRPRPTGGPRP	0.259
RRIRTRPPRLPRPRPRPDIAPRP	-0.0105
RRIRHRPPRLPRPRPRPHPRPRP	0.224
RRIRTRPPRLPRPRPRPWHQPRP	-0.0236
RRIRPRPPRLPRPRPRPNDVPRP	-0.206
RRIRMRPPRLPRPRPRPAFPPRP	-0.104
RRIRYRPPRLPRPRPRPQRVPRP	-0.393
RRIRDRPPRLPRPRPRPLMKPRP	-0.19
RRIRVRPPRLPRPRPRPWWLPRP	-0.0366
RRIRERPPRLPRPRPRPTVHPRP	-0.42
RRIRRRPPRLPRPRPRPEAKPRP	4.76
RRIRCRPPRLPRPRPRPMILPRP	-0.352
RRIRMRPPRLPRPRPRPVLDPRP	0.331
RRIRQRPPRLPRPRPRPFVDPRP	-0.00879

Sequence	shrunken log2 fold change
RRIRFRPPRLPRPRPRPVIFPRP	0.774
RRIRVRPPRLPRPRPRPTLKPRP	0.151
RRIRPRPPRLPRPRPRPLGSPRP	-0.0459
RRIRARPPRLPRPRPRPLKLPRP	-0.152
RRIRKRPPRLPRPRPRPKENPRP	0.189
RRIRFRPPRLPRPRPRPDYFPRP	-0.167
RRIRARPPRLPRPRPRPPWKPRP	0.429
RRIRRRPPRLPRPRPRPAADPRP	0.594
RRIRSRPPRLPRPRPRPKRAPRP	0.326
RRIRKRPPRLPRPRPRPHKLPRP	0.00078
RRIRFRPPRLPRPRPRPYICPRP	-0.4
RRIRCRPPRLPRPRPRPFEPPRP	-0.0564
RRIRDRPPRLPRPRPRPYHPPRP	-0.449
RRIRIRPPRLPRPRPRPPLGPRP	0.164
RRIRWRPPRLPRPRPRPFRHPRP	-0.0307
RRIRSRPPRLPRPRPRPHWSPRP	-0.0455
RRIRMRPPRLPRPRPRPPYAPRP	0.291
RRIRKRPPRLPRPRPRPCHCPRP	-0.241
RRIRERPPRLPRPRPRPTFGPRP	0.0107
RRIRNRPPRLPRPRPRPTIWPRP	-0.23
RRIRWRPPRLPRPRPRPPMVPRP	0.104
RRIRFRPPRLPRPRPRPNLYPRP	-0.716
RRIRYRPPRLPRPRPRPKKWPRP	-0.113
RRIRYRPPRLPRPRPRPGEFPRP	-0.35
RRIRVRPPRLPRPRPRPSDWPRP	-0.102

Sequence	shrunken log2 fold change
RRIRKRPPRLPRPRPRPCFTPRP	0.135
RRIRSRPPRLPRPRPRPGTCPRP	0.148
RRIRYRPPRLPRPRPRPKLIPRP	-0.775
RRIRIRPPRLPRPRPRPGGWPRP	0.56
RRIRVRPPRLPRPRPRPNIDPRP	-0.258
RRIRNRPPRLPRPRPRPPTEPRP	0.389
RRIRYRPPRLPRPRPRPQVVPRP	-0.166
RRIRHRPPRLPRPRPRPVVNPRP	0.00319
RRIRMRPPRLPRPRPRPRPEPRP	1.35
RRIRTRPPRLPRPRPRPGRMPRP	0.232
RRIRDRPPRLPRPRPRPEVCPRP	0.0705
RRIRERPPRLPRPRPRPNCFPRP	-0.195
RRIRERPPRLPRPRPRPWWVPRP	-0.056
RRIRARPPRLPRPRPRPRQRPRP	1.13
RRIRGRPPRLPRPRPRPTLRPRP	0.793
RRIRCRPPRLPRPRPRPKRNPRP	0.34
RRIRNRPPRLPRPRPRPTHRPRP	0.597
RRIRKRPPRLPRPRPRPFDNPRP	0.057
RRIRLRPPRLPRPRPRPQIEPRP	-0.155
RRIRQRPPRLPRPRPRPESWPRP	0.461
RRIRYRPPRLPRPRPRPSPQPRP	-0.195
RRIRNRPPRLPRPRPRPSNQPRP	-0.299
RRIRMRPPRLPRPRPRPGHIPRP	0.0817
RRIRGRPPRLPRPRPRPCKDPRP	-0.0805
RRIRARPPRLPRPRPRPEGDPRP	1.39

Sequence	shrunken log2 fold change
RRIRARPPRLPRPRPRPRCGPRP	0.609
RRIRCRPPRLPRPRPRPKHMPRP	-0.25
RRIRTRPPRLPRPRPRPHTMPRP	-0.406
RRIRDRPPRLPRPRPRPMREPRP	-0.0167
RRIRIRPPRLPRPRPRPRAIPRP	-0.356
RRIRIRPPRLPRPRPRPAQDPRP	-0.0552
RRIRARPPRLPRPRPRPFITPRP	-0.543
RRIRCRPPRLPRPRPRPWHSPRP	0.112
RRIRLRPPRLPRPRPRPLKFPRP	-0.57
RRIRSRPPRLPRPRPRPGSWPRP	0.605
RRIRHRPPRLPRPRPRPTGSPRP	0.0528
RRIRLRPPRLPRPRPRPDSPPRP	-0.119
RRIRQRPPRLPRPRPRPCKHPRP	-1.29
RRIRQRPPRLPRPRPRPGMTPRP	0.00903
RRIRGRPPRLPRPRPRPHFMPRP	0.152
RRIRWRPPRLPRPRPRPSERPRP	0.415
RRIRFRPPRLPRPRPRPMLGPRP	-0.055
RRIRVRPPRLPRPRPRPRFWPRP	0.64
RRIRSRPPRLPRPRPRPNSTPRP	-0.573
RRIRSRPPRLPRPRPRPATWPRP	-0.136
RRIRIRPPRLPRPRPRPGYTPRP	-0.206
RRIRDRPPRLPRPRPRPLINPRP	0.125
RRIRHRPPRLPRPRPRPLRTPRP	1.02
RRIRSRPPRLPRPRPRPANDPRP	0.0254
RRIRMRPPRLPRPRPRPERNPRP	0.0507

Sequence	shrunken log2 fold change
RRIRGRPPRLPRPRPRPTFMPRP	0.327
RRIRGRPPRLPRPRPRPQSWPRP	0.445
RRIRKRPPRLPRPRPRPRQCPRP	-0.0759
RRIRFRPPRLPRPRPRPLVWPRP	0.0758
RRIRIRPPRLPRPRPRPGFSPRP	-0.0749
RRIRIRPPRLPRPRPRPEPGPRP	0.253
RRIRSRPPRLPRPRPRPKMLPRP	-0.149
RRIRGRPPRLPRPRPRPTICPRP	0.601
RRIRARPPRLPRPRPRPNYHPRP	-0.425
RRIRYRPPRLPRPRPRPCNNPRP	-0.331
RRIRNRPPRLPRPRPRPHYPPRP	-0.465
RRIRPRPPRLPRPRPRPRRKPRP	0.166
RRIRIRPPRLPRPRPRPVESPRP	-0.0832
RRIRTRPPRLPRPRPRPLHIPRP	0.0174
RRIRLRPPRLPRPRPRPLGRPRP	0.0726
RRIRSRPPRLPRPRPRPNKYPRP	-0.653
RRIRSRPPRLPRPRPRPCCRPRP	-0.0822
RRIRKRPPRLPRPRPRPRVQPRP	0.386
RRIRYRPPRLPRPRPRPVWTPRP	0.0188
RRIRSRPPRLPRPRPRPRAQPRP	0.106
RRIRCRPPRLPRPRPRPDNVPRP	-0.0772
RRIRARPPRLPRPRPRPNHHPRP	-0.223
RRIRPRPPRLPRPRPRPFLPPRP	-0.0925
RRIRWRPPRLPRPRPRPKYHPRP	0.185
RRIRFRPPRLPRPRPRPLGPPRP	0.148

Sequence	shrunken log2 fold change
RRIRSRPPRLPRPRPRPYPTPRP	-0.234
RRIRERPPRLPRPRPRPMHSPRP	0.0314
RRIRCRPPRLPRPRPRPCRGPRP	-0.243
RRIRQRPPRLPRPRPRPNVVPRP	0.0298
RRIRDRPPRLPRPRPRPEVTPRP	-0.000921
RRIRSRPPRLPRPRPRPHKMPRP	-0.156
RRIRERPPRLPRPRPRPSMLPRP	-0.938
RRIRARPPRLPRPRPRPTDKPRP	0.391
RRIRLRPPRLPRPRPRPEYFPRP	-0.0957
RRIRVRPPRLPRPRPRPHWIPRP	-0.512
RRIRNRPPRLPRPRPRPIWVPRP	-0.0659
RRIRNRPPRLPRPRPRPMMKPRP	2.77
RRIRCRPPRLPRPRPRPMQQPRP	-0.036
RRIRNRPPRLPRPRPRPFSRPRP	-0.000753
RRIRKRPPRLPRPRPRPMFPPRP	-0.187
RRIRWRPPRLPRPRPRPPDPPRP	0.296
RRIRKRPPRLPRPRPRPWRGPRP	0.155
RRIRPRPPRLPRPRPRPHKRPRP	0.0853
RRIRMRPPRLPRPRPRPPIWPRP	0.512
RRIRKRPPRLPRPRPRPHGFPRP	0.056
RRIRPRPPRLPRPRPRPIMNPRP	-0.799
RRIRKRPPRLPRPRPRPWNEPRP	-0.0249
RRIRVRPPRLPRPRPRPQQPPRP	0.124
RRIRIRPPRLPRPRPRPWGHPRP	-0.0191
RRIRYRPPRLPRPRPRPLTWPRP	-0.333
